Data taken from the supplement of paper PMC5998384.

Legend:
HeLa Kyoto [1] = test: solubility in G1/S (NP-40 vs SDS abundance) (log2 ratio); higher = more soluble; conditions: cell cycle stage: G1/S
HeLa Kyoto [2] = test: melting temperature (median over replicates), in situ; higher = more thermally stable
HeLa Kyoto [3] = test: solubility change mitosis vs G1/S (difference of NP-40 vs SDS log2 ratios) (log2 ratio difference); higher = more soluble in mitosis
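Wherever melting temperature (median over replicates), in situ is given: HeLa Kyoto cells synchronized by double thymidine or nocodazole block, proteins quantified by TMT10plex mass spectrometry, three independent biological replicates.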
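Wherever solubility change mitosis vs G1/S (difference of NP-40 vs SDS log2 ratios) is given: synchronized HeLa Kyoto cells (double thymidine block for G1/S, nocodazole release for mitosis), protein amounts in NP-40 versus SDS lysates quantified by mass spectrometry, three biological replicates.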
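Wherever solubility in G1/S (NP-40 vs SDS abundance) is given: HeLa Kyoto cells arrested at G1/S by double thymidine block, proteins quantified by TMT10plex mass spectrometry in mild NP-40 versus SDS extracts, three biological replicates.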

Sequence | solubility in G1/S (log2) (HeLa Kyoto [1]) | melting temperature (HeLa Kyoto [2]; cell cycle stage: mitosis) [°C] | solubility change mitosis (log2) (HeLa Kyoto [3]) | melting temperature (HeLa Kyoto [2]; cell cycle stage: G1/S) [°C]
MSEAMDQPAGGPGNPRPGEGDDGSMEPGTCQELLHRLRELEAENSALAQANENQRETYERCLDEVANHVVQALLNQKDLREECIKLKKRVFDLERQNQMLSALFQQKLQLTTGSLPQIPLTPLQPPSEPPASPSLSSTEGPAAPLPLGHCAGQREVCWEQQLRPGGPGPPAAPPPALDALSPFLRKKAQILEVLRALEETDPLLLCSPATPWRPPGQGPGSPEPINGELCGPPQPEPSPWAPCLLLGPGNLGGLLHWERLLGGLGGEEDTGRPWGPSRGPPQAQGTSSGPNCAPGSSSSSSSDEAGDPNEAPSPDTLLGALARRQLNLGQLLEDTESYLQAFLAGAAGPLNGDHPGPGQSSSPDQAPPQLSKSKGLPKSAWGGGTPEAHRPGFGATSEGQGPLPFLSMFMGAGDAPLGSRPGHPHSSSQVKSKLQIGPPSPGEAQGPLLPSPARGLKFLKLPPTSEKSPSPGGPQLSPQLPRNSRIPCRNSGSDGSPSPLLARRGLGGGELSPEGAQGLPTSPSPCYTTPDSTQLRPPQSALSTTLSPGPVVSPCYENILDLSRSTFRGPSPEPPPSPLQVPTYPQLTLEVPQAPEVLRSPGVPPSPCLPESYPYGSPQEKSLDKAGSESPHPGRRTPGNSSKKPSQGSGRRPGDPGSTPLRDRLAALGKLKTGPEGALGSEKNGVPARPGTEKTRGPGKSGESAGDMVPSIHRPLEQLEAKGGIRGAVALGTNSLKQQEPGLMGDPGARVYSSHSMGARVDLEPVSPRSCLTKVELAKSRLAGALCPQVPRTPAKVPTSAPSLGKPNKSPHSSPTKLPSKSPTKVVPRPGAPLVTKESPKPDKGKGPPWADCGSTTAQSTPLVPGPTDPSQGPEGLAPHSAIEEKVMKGIEENVLRLQGQERAPGAEVKHRNTSSIASWFGLKKSKLPALNRRTEATKNKEGAGGGSPLRREVKMEARKLEAESLNISKLMAKAEDLRRALEEEKAYLSSRARPRPGGPAPGPNTGLGQVQGQLAGMYQGADTFMQQLLNRVDGKELPSKSWREPKPEYGDFQPVSSDPKSPWPACGPRNGLVGPLQGCGKPPGKPSSEPGRREEMPSEDSLAEPVPTSHFTACGSLTRTLDSGIGTFPPPDHGSSGTPSKNLPKTKPPRLDPPPGVPPARPPPLTKVPRRAHTLEREVPGIEELLVSGRHPSMPAFPALLPAAPGHRGHETCPDDPCEDPGPTPPVQLAKNWTFPNTRAAGSSSDPLMCPPRQLEGLPRTPMALPVDRKRSQEPSRPSPTPQGPPFGGSRTPSTSDMAEEGRVASGGPPGLETSESLSDSLYDSLSSCGSQG [NCKAP5L] | 0.0838 | 50.4 | -0.128 | 
MSEVSCKKRDDYLEWPEYFMAVAFLSAQRSKDPNSQVGACIVNSENKIVGIGYNGMPNGCSDDVLPWRRTAENKLDTKYPYVCHAELNAIMNKNSTDVKGCSMYVALFPCNECAKLIIQAGIKEVIFMSDKYHDSDEATAARLLFNMAGVTFRKFIPKCSKIVIDFDSINSRPSQKLQ [DCTD] | 0.419 | 58.5 | 0.0667 | 59.8
MSGIKRTIKETDPDYEDVSVALPNKRHKAIENSARDAAVQKIETIIKEQFALEMKNKEHEIEVIDQRLIEARRMMDKLRACIVANYYASAGLLKVSEGSKTCDTMVFNHPAIKKFLESPSRSSSPANQRAETPSANHSESDSLSQHNDFLSDKDNNSNMDIEERLSNNMEQRPSRNTGRDTSRITGSHKTEQRNADLTDETSRLFVKKTIVVGNVSKYIPPDKREENDQSTHKWMVYVRGSRREPSINHFVKKVWFFLHPSYKPNDLVEVREPPFHLTRRGWGEFPVRVQVHFKDSQNKRIDIIHNLKLDRTYTGLQTLGAETVVDVELHRHSLGEDCIYPQSSESDISDAPPSLPLTIPAPVKASSPIKQSHEPVPDTSVEKGFPASTEAERHTPFYALPSSLERTPTKMTTSQKVTFCSHGNSAFQPIASSCKIVPQSQVPNPESPGKSFQPITMSCKIVSGSPISTPSPSPLPRTPTSTPVHVKQGTAGSVINNPYVIMDKQPGQVIGATTPSTGSPTNKISTASQVSQGTGSPVPKIHGSSFVTSTVKQEDSLFASMPPLCPIGSHPKVQSPKPITGGLGAFTKVIIKQEPGEAPHVPATGAASQSPLPQYVTVKGGHMIAVSPQKQVITPGEGIAQSAKVQPSKVVGVPVGSALPSTVKQAVAISGGQILVAKASSSVSKAVGPKQVVTQGVAKAIVSGGGGTIVAQPVQTLTKAQVTAAGPQKSGSQGSVMATLQLPATNLANLANLPPGTKLYLTTNSKNPSGKGKLLLIPQGAILRATNNANLQSGSAASGGSGAGGGGGGGGGGGSGSGGGGSTGGGGGTAGGGTQSTAGPGGISQHLTYTSYILKQTPQGTFLVGQPSPQTSGKQLTTGSVVQGTLGVSTSSAQGQQTLKVISGQKTTLFTQAAHGGQASLMKISDSTLKTVPATSQLSKPGTTMLRVAGGVITTATSPAVALSANGPAQQSEGMAPVSSSTVSSVTKTSGQQQVCVSQATVGTCKAATPTVVSATSLVPTPNPISGKATVSGLLKIHSSQSSPQQAVLTIPSQLKPLSVNTSGGVQTILMPVNKVVQSFSTSKPPAILPVAAPTPVVPSSAPAAVAKVKTEPETPGPSCLSQEGQTAVKTEESSELGNYVIKIDHLETIQQLLTAVVKKIPLITAKSEDASCFSAKSVEQYYGWNIGKRRAAEWQRAMTMRKVLQEILEKNPRFHHLTPLKTKHIAHWCRCHGYTPPDPESLRNDGDSIEDVLTQIDSEPECPSSFSSADNLCRKLEDLQQFQKREPENEEEVDILSLSEPVKINIKKEQEEKQEEVKFYLPPTPGSEFIGDVTQKIGITLQPVALHRNVYASVVEDMILKATEQLVNDILRQALAVGYQTASHNRIPKEITVSNIHQAICNIPFLDFLTNKHMGILNEDQ [YEATS2] | -0.495 | 49.7 | 0.161 | 51.4
MSGSLGRAAAALLRWGRGAGGGGLWGPGVRAAGSGAGGGGSAEQLDALVKKDKVVVFLKGTPEQPQCGFSNAVVQILRLHGVRDYAAYNVLDDPELRQGIKDYSNWPTIPQVYLNGEFVGGCDILLQMHQNGDLVEELKKLGIHSALLDEKKDQDSK [GLRX5] | -0.00395 | 53 | -0.0285 | 53.9
MSRLIVKNLPNGMKEERFRQLFAAFGTLTDCSLKFTKDGKFRKFGFIGFKSEEEAQKAQKHFNKSFIDTSRITVEFCKSFGDPAKPRAWSKHAQKPSQPKQPPKDSTTPEIKKDEKKKKVAGQLEKLKEDTEFQEFLSVHQRRAQAATWANDGLDAEPSKGKSKPASDYLNFDSDSGQESEEEGAGEDLEEEASLEPKAAVQKELSDMDYLKSKMVKAGSSSSSEEEESEDEAVHCDEGSEAEEEDSSATPVLQERDSKGAGQEQGMPAGKKRPPEARAETEKPANQKEPTTCHTVKLRGAPFNVTEKNVMEFLAPLKPVAIRIVRNAHGNKTGYIFVDFSNEEEVKQALKCNREYMGGRYIEVFREKNVPTTKGAPKNTTKSWQGRILGENEEEEDLAESGRLFVRNLPYTSTEEDLEKLFSKYGPLSELHYPIDSLTKKPKGFAFITFMFPEHAVKAYSEVDGQVFQGRMLHVLPSTIKKEASEDASALGSSSYKKKKEAQDKANSASSHNWNTLFMGPNAVADAIAQKYNATKSQVFDHETKGSVAVRVALGETQLVQEVRRFLIDNGVSLDSFSQAAAERSKTVILVKNLPAGTLAAQLQETFGHFGSLGRVLLPEGGITAIVEFLEPLEARKAFRHLAYSKFHHVPLYLEWAPVGVFSSTAPQKKKLQDTPSEPMEKDPAEPETVPDGETPEDENPTEEGADNSSAKMEEEEEEEEEEEESLPGCTLFIKNLNFDTTEEKLKEVFSKVGTVKSCSISKKKNKAGVLLSMGFGFVEYRKPEQAQKALKQLQGHVVDGHKLEVRISERATKPAVTLARKKQVPRKQTTSKILVRNIPFQAHSREIRELFSTFGELKTVRLPKKMTGTGTHRGFGFVDFLTKQDAKRAFNALCHSTHLYGRRLVLEWADSEVTLQALRRKTAAHFHEPPKKKRSVVLDEILEQLEGSDSDSEEQTLQL [RBM19] | -1.27 | 51.2 | 0.706 | 48.5
MSRQTTSVGSSCLDLWREKNDRLVRQAKVAQNSGLTLRRQQLAQDALEGLRGLLHSLQGLPAAVPVLPLELTVTCNFIILRASLAQGFTEDQAQDIQRSLERVLETQEQQGPRLEQGLRELWDSVLRASCLLPELLSALHRLVGLQAALWLSADRLGDLALLLETLNGSQSGASKDLLLLLKTWSPPAEELDAPLTLQDAQGLKDVLLTAFAYRQGLQELITGNPDKALSSLHEAASGLCPRPVLVQVYTALGSCHRKMGNPQRALLYLVAALKEGSAWGPPLLEASRLYQQLGDTTAELESLELLVEALNVPCSSKAPQFLIEVELLLPPPDLASPLHCGTQSQTKHILASRCLQTGRAGDAAEHYLDLLALLLDSSEPRFSPPPSPPGPCMPEVFLEAAVALIQAGRAQDALTLCEELLSRTSSLLPKMSRLWEDARKGTKELPYCPLWVSATHLLQGQAWVQLGAQKVAISEFSRCLELLFRATPEEKEQGAAFNCEQGCKSDAALQQLRAAALISRGLEWVASGQDTKALQDFLLSVQMCPGNRDTYFHLLQTLKRLDRRDEATALWWRLEAQTKGSHEDALWSLPLYLESYLSWIRPSDRDAFLEEFRTSLPKSCDL [FANCG] | 0.138 | 48 | -0.0579 | 49.9
MSVAGGEIRGDTGGEDTAAPGRFSFSPEPTLEDIRRLHAEFAAERDWEQFHQPRNLLLALVGEVGELAELFQWKTDGEPGPQGWSPRERAALQEELSDVLIYLVALAARCRVDLPLAVLSKMDINRRRYPAHLARSSSRKYTELPHGAISEDQAVGPADIPCDSTGQTST [DCTPP1] | -0.0125 | 50.5 | 0.646 | 54.1
MSYYLSSENHLDPGPIYMRENGQLHMVNLALDGVRSSLQKPRPFRLFPKGFSVELCMNREDDTARKEKTDHFIFTYTREGNLRYSAKSLFSLVLGFISDNVDHIDSLIGFPEQIAEKLFSAAEARQKFTEPGAGLRALQKFTEAYGSLVLCSLCLRNRYLVISEKLEEIKSFRELTCLDLSCCKLGDEHELLEHLTNEALSSVTQLHLKDNCLSDAGVRKMTAPVRVMKRGLENLTLLDLSCNPEITDAGIGYLFSFRKLNCLDISGTGLKDIKTVKHKLQTHIGLVHSKVPLKEFDHSNCKTEGWADQIVLQWERVTAEAVKPRETSEPRAAAQRFYGKRSRAEAPLKCPLADTHMNSSEKLQFYKEKAPDCHGPVLKHEAISSQESKKSKKRPFEESETEQNNSSQPSKQKYVCLAVEDWDLLNSY [LRRC42] | -0.0147 | 50.9 | -0.111 | 49
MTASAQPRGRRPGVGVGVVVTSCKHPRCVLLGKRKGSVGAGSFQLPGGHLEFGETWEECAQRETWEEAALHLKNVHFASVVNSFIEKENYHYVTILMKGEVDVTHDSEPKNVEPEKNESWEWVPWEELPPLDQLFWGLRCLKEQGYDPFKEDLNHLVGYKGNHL [NUDT15] | 0.425 | 52.3 | -0.3 | 53.4
MTGKKSSREKRRKRSSQEAAAALAAPDIVPALASGSSGSTSGCGSAGGCGSVSCCGNANFSGSVTGGGSGGSCWGGSSVERSERRKRRSTDSSSVSGSLQQETKYILPTLEKELFLAEHSDLEEGGLDLTVSLKPVSFYISDKKEMLQQCFCIIGEKKLQKMLPDVLKNCSIEEIKKLCQEQLELLSEKKILKILEGDNGMDSDMEEEADDGSKMGSDLVSQQDICIDSASSVRENKQPEGLELKQGKGEDSDVLSINADAYDSDIEGPCNEEAAAPEAPENTVQSEAGQIDDLEKDIEKSVNEILGLAESSPNEPKAATLAVPPPEDVQPSAQQLELLELEMRARAIKALMKAGDIKKPA [CAAP1] | -0.326 | 51.8 | 0.56 | 47.3
MTKIKADPDGPEAQAEACSGERTYQELLVNQNPIAQPLASRRLTRKLYKCIKKAVKQKQIRRGVKEVQKFVNKGEKGIMVLAGDTLPIEVYCHLPVMCEDRNLPYVYIPSKTDLGAAAGSKRPTCVIMVKPHEEYQEAYDECLEEVQSLPLPL [NHP2] | -1.1 | 54.1 | 1.21 | 55.3
MTTSQKHRDFVAEPMGEKPVGSLAGIGEVLGKKLEERGFDKAYVVLGQFLVLKKDEDLFREWLKDTCGANAKQSRDCFGCLREWCDAFL [BANF1] | -1.48 | 52.2 | 1.93 | 
